# Measurements reported in publication PMC4721541 (Bioscience Reports, 2015).
# Positions count from the first letter of the chain named. Numbers in names are those of the source.
# B1: Erv1 W183F (enzyme, S. cerevisiae, UniProt P27882 1-189, looked up)
# chain: MKAIDKMTDNPPQEGLSGRKIIYDEDGKPCRSCNTLLDFQYVTGKISNGLKNLSSNGKLAGTGALTGEASELMPGSRTYRKVDPPDVEQLGRSSWTLLHSVAASYPAQPTDQQKGEMKQFLNIFSHIYPCNWCAKDFEKYIRENAPQVESREELGRWMCEAHNKVNKKLRKPKFDCNFWEKRFKDGWDE
# notes: Erv1, Saccharomyces cerevisiae, 189 amino acids, full length, with W183F; Made by site-directed mutagenesis on the construct of m1; FAD content 71% as purified; source: E. coli Rosetta-gami 2, purified (Ni2+ resin, gel filtration)
# B2: Erv1 (essential for respiration and viability 1), wild type (enzyme, S. cerevisiae, UniProt P27882 1-189, looked up)
# chain: B1 chain with F183W
# notes: Erv1, Saccharomyces cerevisiae, FAD-dependent thiol oxidase, 189 amino acids, full length; Construct in pET24a(+) (NdeI/XhoI); also called WT Erv1; WT; source: E. coli Rosetta-gami 2, purified (Ni2+ resin, gel filtration)
# B3: Erv1 W179F (enzyme, S. cerevisiae, UniProt P27882 1-189, looked up)
# chain: B1 chain with W179F, F183W
# notes: Erv1, Saccharomyces cerevisiae, 189 amino acids, full length, with W179F; Made by site-directed mutagenesis on the construct of m1; source: E. coli Rosetta-gami 2, purified (Ni2+ resin, gel filtration)
# B4: Erv1 W95F (enzyme, S. cerevisiae, UniProt P27882 1-189, looked up)
# chain: B1 chain with W95F, F183W
# notes: Erv1, Saccharomyces cerevisiae, 189 amino acids, full length, with W95F; Made by site-directed mutagenesis on the construct of m1; source: E. coli Rosetta-gami 2, purified (Ni2+ resin, gel filtration)
# B5: Erv1 W187F (enzyme, S. cerevisiae, UniProt P27882 1-189, looked up)
# chain: B1 chain with F183W, W187F
# notes: Erv1, Saccharomyces cerevisiae, 189 amino acids, full length, with W187F; Made by site-directed mutagenesis on the construct of m1; source: E. coli Rosetta-gami 2, purified (Ni2+ resin, gel filtration)
# B6: Erv1 W132F (enzyme, S. cerevisiae, UniProt P27882 1-189, looked up)
# chain: B1 chain with W132F, F183W
# notes: Erv1, Saccharomyces cerevisiae, 189 amino acids, full length, with W132F; Made by site-directed mutagenesis on the construct of m1; source: E. coli Rosetta-gami 2, purified (Ni2+ resin, gel filtration)
# B7: Erv1 W157F (enzyme, S. cerevisiae, UniProt P27882 1-189, looked up)
# chain: B1 chain with W157F, F183W
# notes: Erv1, Saccharomyces cerevisiae, 189 amino acids, full length, with W157F; Made by site-directed mutagenesis on the construct of m1; source: E. coli Rosetta-gami 2, purified (Ni2+ resin, gel filtration)
# Target: the molecule itself
# Assay: SEC-MALS; multi-angle laser light scattering after Superdex 200 10/30 in buffer A (150 mM NaCl, 50 mM Tris/HCl, pH 7.4); DAWN EOS photometer, Optilab rEX refractor
row,Protein,stoichiometry N
1,B1,2

# Target: the molecule itself
# Assay: SEC; gel filtration on Superdex 200 10/30, 4°C, BAE (150 mM NaCl, 50 mM Tris/HCl, 1 mM EDTA, pH 7.4); oligomer state by elution position against the WT
row,Protein,stoichiometry N
1,B2,4
2,B3,4
3,B4,4
4,B5,4
5,B6,4
6,B7,4
